Test results published in patent publication US20160024208A1 (Regeneron, published 2016).
Residue numbers refer to the chain shown, from its start.

T1: Native Nav1.7 (3-1) peptide, human (human)
T1 construct: Synthetic peptide (Celtek), unbiotinylated; also called Human Nav1.7 3-1 native; Nav1.7 3-1 native peptide
T1 peptide: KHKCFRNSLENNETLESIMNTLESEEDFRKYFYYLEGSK

T2: N-Term Biotin Nav1.7 (3-1) peptide, mulatta (mulatta (monkey), not fully specified; N-terminal biotin attached via a G4S linker)
T2 construct: Synthetic peptide; also called Mulatta Nav1.7 3-1 N-term biotin; monkey
T2 peptide: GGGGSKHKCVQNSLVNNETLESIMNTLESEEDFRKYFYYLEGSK

T3: N-Term Biotin Nav1.7 (3-1) peptide, mouse (mouse, not fully specified; N-terminal biotin attached via a G4S linker)
T3 construct: Synthetic peptide; also called Mouse Nav1.7 3-1 N-term biotin
T3 peptide: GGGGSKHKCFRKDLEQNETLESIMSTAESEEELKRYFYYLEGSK

T4: Native Nav1.7 (3-1) peptide, rat (rat)
T4 construct: Synthetic peptide; also called Rat Nav1.7 3-1 native
T4 peptide: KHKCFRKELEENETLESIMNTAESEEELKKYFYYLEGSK

T5: C-term Biotin Nav1.7 (3-1) peptide, human (human, not fully specified; C-terminal biotin attached via a G4S linker)
T5 construct: Synthetic peptide; also called Human Nav1.7 3-1 C-term biotin
T5 peptide: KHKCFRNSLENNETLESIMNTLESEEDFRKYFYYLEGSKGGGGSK

T6: N-Term Biotin-Nav1.7 (3-1) peptide, human (human, not fully specified; N-terminal biotin attached via a G4S linker)
T6 construct: ELISA peptide
T6 peptide: T2 peptide with V10F, Q11R, V15E

B1: H1H1019B (antibody, V domains shown)
VH: EVQLVESGPGLVKPSETLSLKCTVSGGSIRSSGYYWGWIRQPPGKGLEWIGSIHHSGSTYYNPSLKSRVTISVDTSKSQFSLRLTSVTAADTAVYYCGRHGRDYYYGMDVWGQGTTVTVSS
VL: AIQLTQSPSSLSASVGDRVTITCRASQDINNWLVWYQQKPGKAPKLLIYAASSLQSGVPSRFSGSGSGTDFTLTISSLQPEDFATYYCQQANSFPLTFGGGTKVDIKR
B2: H4H391P (antibody, V domains shown)
VH: QVQLVESGGGVVQPGRSLRLSCAASGFTFSSYGMHWVRQAPGKGLEWVAVISYEGSNKHYADSVKGRFTISRDNSKNTLYLQMNSLRAEDTAVFYCAQSRGYSYGLGYWGQGTLVTVSS
VL: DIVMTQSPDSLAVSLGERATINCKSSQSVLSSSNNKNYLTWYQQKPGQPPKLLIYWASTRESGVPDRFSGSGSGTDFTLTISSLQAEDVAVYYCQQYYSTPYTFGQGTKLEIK
B3: H1M994N (antibody, V domains shown)
VH: QVQLVESGGGVVQPGRSLRLSCAASGFTFSSYGMHWVRQAPGKGLEWVAVISYDGNNKHFADSVKGRFTISRDNSKNTLNLQMNSLRAEDRAVYYCARGASGFVLDIWGQGTMVTVSS
VL: DIVMTQTPLSSPVTLGQPASISCRSSQSLVRSDGNTYLSWLQQRPGQPPRLLIYKISNRFSGVPDRFSGSGAGTDFTLKISRVEAEDVGIYFCMQTTQFPFTFGPGTKVDIK
notes: Hybridoma-derived
B4: H1M826N (antibody, V domains shown)
VH: QVQLVESGGGVVQPERSLRLSCAASGFTFSSYGMHWVRQAPGEGLEWVAVISYDGSNTKYADSVRGRFTISRDNSKNMLYLQMNSLRAEDTAVFYCARGYSGYAFDYWGQGILVTVSS
VL: B3 VL with Q27H, S70T, S81N, I90F, F92Y, T96A
notes: Hybridoma-derived
B5: H4H408B (antibody, V domains shown)
VH: B2 VH with E54Q, G55E, A61V, F94Y
VL: DIQMTQSPSSLSASVGDRVTITCRASQGIRNDLGWYQQKPGKAPKRLIYAASSLQSGVPSRFSGSGSGTEFTLTISSLQPEDFATYYCQQHNSYPLTFGQGTKVEIKR

Experiments:
[1] = target: T7, full-length human Nav1.7 fused at its N-terminus to GFP, expressed in HEK293 cells (human, UniProt Q15858 1-1988); assay: cell-based or functional assay
[2] = target: T1, Native Nav1.7 (3-1) peptide, human; assay: SPR, captured antibody, peptide analyte
Protocol: (§1) The binding affinities of anti-Naᵥ 1.7 antibodies to Naᵥ 1.7 loop peptides were determined by Biacore. For monovalent kinetic experiments, antibodies were captured through the Fc region via a goat anti-Fc-coupled biosensor surface, and the peptides (as analyte) were injected over this captured antibody surface. For bivalent (avidity-driven) kinetic experiments, biotinylated peptides corresponding to the Naᵥ 1.7 3-1, 3-3, or paddle loop sequences were captured on a NeutrAvidin sensor surface, and anti-Naᵥ 1.7 antibodies (as analyte) were injected over this surface. Following the capture step, each analyte was individually injected at several concentrations over its respective capture surface, and changes in bound surface units (RU) were monitored. The dissociation rate is independent of the concentration of analyte used in the experiment, and the dissociation rate constant (kd) was determined from the change in antibody-bound analyte RU over time. The Biacore kinetic data were obtained using a double referencing procedure. The double referencing was conducted by first subtracting any interaction of the analyte over the reference surface (i.e., the anti-Fc coupled surface alone or the NeutrAvidin surface alone), thereby correcting for nonspecific binding to capture surface and for refractive index changes. Control buffer injections (no analyte) over the antibody- or peptide-captured surfaces were also performed to allow subtraction of RU signal changes resulting from the natural dissociation of captured binding partner from the sensor surface. The kinetic parameters were obtained by globally fitting the data for all concentrations tested for a given peptide or antibody to a 1:1 binding model using Biacore T100 Evaluation Software version 2.0.2. The KD was calculated as the dissociation rate constant divided by the association rate constant (KD=kd/kₐ). The dissociative half-life (t_{1/2}) was calculated from the dissociation rate constant (t_{1/2}=In2/kd).

[3] = target: T2, N-Term Biotin Nav1.7 (3-1) peptide, …; assay: SPR, captured antibody, peptide analyte
Protocol: as §1

[4] = target: T3, N-Term Biotin Nav1.7 (3-1) peptide, …; assay: SPR, captured antibody, peptide analyte
Protocol: as §1

[5] = target: T4, Native Nav1.7 (3-1) peptide, rat; assay: SPR, captured antibody, peptide analyte
Protocol: as §1

[6] = target: T5, C-term Biotin Nav1.7 (3-1) peptide, …; assay: SPR, captured biotin-peptide, antibody analyte
Protocol: as §1

[7] = target: T2, N-Term Biotin Nav1.7 (3-1) peptide, …; assay: ELISA on coated peptide, antibody 1 ug/ml, OD450 grade
Protocol: (§2) Anti-Naᵥ 1.7 antibodies were tested for their ability to bind to the Naᵥ 1.7 peptides. The various peptides were coated overnight onto 96-well Nunc Immunosorp plates at a concentration of 4 μg/mL in PBS, followed by blocking for 1 hour in a suitable blocking agent. For biotinylated peptides, avidin was first coated on Nunc Immunosorp plates at 2 μg/mL in PBS overnight, followed by blocking as described, and the plate was then coated with biotinylated peptides at a concentration of 0.4 μg/mL and incubated for 1 hour at room temperature. Purified anti-Naᵥ 1.7 antibodies were diluted to a final concentration of 0.1 μg/mL and 1.0 μg/mL and added to the wells of the coated microtiter plates followed by incubation for 1 hour at room temperature. Bound antibodies were detected with horseradish peroxidase (HRP) conjugated anti-mouse or anti-human IgG (Jackson Immuno Research Lab, West Grove, Pa.) depending on the antibody species and developed by colorimetric response using tetramethylbenzidine (TMB) substrate (BD Biosciences). Absorbance was read at OD₄₅₀ on a plate reader for 0.1 second.
(§3) Values in Table 11 represent absolute binding ranges (at OD450) to plate-coated peptides for antibodies added at 1 μg/ml as follows: OD450<0.2: −; 0.2<OD450<1: +; 1<OD450<2: ++; 2<OD450<4: +++; NT: Not Tested.

[8] = target: T3, N-Term Biotin Nav1.7 (3-1) peptide, …; assay: as above
Protocol: as §2, §3

[9] = target: T4, Native Nav1.7 (3-1) peptide, rat; assay: as above
Protocol: as §2, §3

[10] = target: T6, N-Term Biotin-Nav1.7 (3-1) peptide, …; assay: as above
Protocol: as §2, §3

[11] = target: T7, full-length human Nav1.7 fused at its …; assay: flow cytometry; % stained hNav1.7-GFP-HEK293 minus parental HEK293
Protocol: The binding of anti-Naᵥ 1.7 human antibodies to full-length Naᵥ 1.7 expressed in HEK293 cells was determined by flow cytometry (FACS). HEK293 cells were stably-transfected with full-length human Nav1.7 fused at its N-terminus to the green fluorescent protein (GFP) to generate cell line hNaᵥ 1.7-GFP-HEK293. Antibody binding to the transfected cells overexpressing Naᵥ 1.7 was compared to binding to the parental HEK293 cell line. To perform the binding experiments, adherent cells were collected using 1 mM EDTA in PBS, washed and re-suspended in cold PBS containing 5% FBS. For each binding experiment, the anti-Naᵥ 1.7 antibody (at concentrations ranging from 1 nM to 13 nM), was added to 250,000 cells in 500 μL of PBS with 5% FBS. After incubation for 20 minutes on ice, the secondary antibody, recognizing either human-Fc and conjugated to cyanine 5 (Cy5) or recognizing mouse-Fc and conjugated to allophyocyanin (APC), was then added to the cell mixture at a final secondary antibody concentration of 1.7 nM. After incubating for 20 minutes on ice, the cells were resuspended in PBS+5% FBS and then sorted and analyzed on a flow cytometer to determine relative binding by the candidate antibodies. For FACS analysis, gating was applied to examine only healthy live cells in the antibody binding experiments, and percentage stained was recorded. Staining of secondary antibodies alone to Naᵥ 1.7-GFP-HEK293 cells gave low background signals (1-2%). Specific binding was measured as the percent binding to Naᵥ 1.7-GFP-HEK293 cells minus percent binding to parental HEK293 cells.

[12] = target: T7, full-length human Nav1.7 fused at its …; assay: flow cytometry on Nav1.7-GFP-HEK293, antibody 3.3 nM
Protocol: (§4) The specificity of binding of anti-Naᵥ 1.7 human antibodies to full-length Naᵥ 1.7 expressed in HEK293 cells was determined by peptide competition experiments using flow cytometry.
(§5) HEK293 cells stably-transfected with full-length Naᵥ 1.7 fused at its N-terminus to GFP (Naᵥ 1.7-GFP-HEK293) were used for this study. Antibody binding to the transfected cells overexpressing Naᵥ 1.7 was compared to binding in the presence of excess peptide and to binding to the parental HEK293 cell line. To perform the binding experiments, adherent cells were collected using 1 mM EDTA in PBS, washed and re-suspended in cold PBS containing 5% FBS. For each binding experiment the anti-Naᵥ 1.7 antibody at a final concentration of 3.3 nM (in PBS/5% FBS) was added to cells either directly or after incubating for 10 min on ice with a 1000-fold molar excess (3.3 uM final concentration in PBS/5% FBS) of synthetic peptide with sequence corresponding to the loop specificity of the antibody. The antibodies designated as H4H391P, H4H443B, H4H448B, and H1M797N were preincubated as described above with a synthetic peptide corresponding to EC loop 3-1 (amino acid residues 269-338 of SEQ ID NO: 670), whereas the antibodies designated as H4H468P and H1 M852N were preincubated with a synthetic peptide corresponding to EC loop 3-3 (amino acid residues 1333-1382 of SEQ ID NO: 670). The antibody or antibody-peptide mixture was then allowed to incubate with cells for 20 min on ice, followed by addition of 500 uL of cold PBS/5% FBS. Cells were collected by centrifugation, resuspended in 500 uL of cold PBS/5% FBS, and then secondary antibody matched to the antibody isotype (either anti-human-Fc conjugated to Cyanine 5 or anti-mouse-Fc conjugated to allophyococyanin) was added. Binding was detected on the flow cytometry instrument and analyzed as percent binding using the instrument software. For FACS analysis appropriate gating was applied so that only healthy, live cells were counted. Background staining of secondary antibodies alone to Naᵥ 1.7-GFP-HEK293 cells was tested and recorded for all samples, and results ranged between 1-2% binding.

[13] = target: T7, full-length human Nav1.7 fused at its …; assay: flow cytometry on Nav1.7-GFP-HEK293, antibody 3.3 nM preincubated with 3.3 uM EC 3-1 peptide as competitor
Protocol: as §4, §5

[14] = target: T3, N-Term Biotin Nav1.7 (3-1) peptide, …; assay: ELISA on coated peptide
Protocol: as §2, §3

Binder	Kd [2]	t1/2 [2]	Kd [3]	t1/2 [3]	Kd [6]	t1/2 [6]	% Binding Nav1.7 [11]	binding result [4]	% Binding Nav1.7 (Stable Line) [12]	% Binding Nav1.7 + 1000x Peptide (Competition Binding) [13]	also measured
B1	113 nM	0.44 min	12.6 nM	2.8 min	0.231 nM	29.8 min	28.1%				Current blocking (Average % inhibition), IonWorks Quattro, 223 nM antibody [1]: 24%; Kd [4]: 351 nM; t1/2 [4]: 0.083 min; Kd [5]: 101 nM; t1/2 [5]: 0.11 min; OD450 [7]: 2 to 4 od; OD450 [8]: 2 to 4 od; OD450 [9]: 2 to 4 od; OD450 [10]: 2 to 4 od
B2	13.6 nM	8.1 min	2.18 nM	36.1 min	0.802 nM	64.6 min	14.3%	no binding	7.8%	2.6%	binding result [5]: no binding
B3							36%		93%	33.4%	
B4							61%		95.6%	17.7%	
B5								no binding			OD450 [14]: < 0.2 od
